Data: publication PMC10182070, “Ligand dependent interaction between PC-TP and PPARδ mitigates diet-induced hepatic steatosis in male mice” (Nature Communications, 2023)
Numbering of substitutions follows the chain as printed. Names and notes keep the numbering of the source. Blank lines part the entries; values can stand above or below the binder they belong to.

Key:
[1] = target: T1, purified PPARδ ligand-binding domain (LBD), Cy5-labelled (human, Cy5 fluorophore (NHS) on lysine amines)
T1 chain: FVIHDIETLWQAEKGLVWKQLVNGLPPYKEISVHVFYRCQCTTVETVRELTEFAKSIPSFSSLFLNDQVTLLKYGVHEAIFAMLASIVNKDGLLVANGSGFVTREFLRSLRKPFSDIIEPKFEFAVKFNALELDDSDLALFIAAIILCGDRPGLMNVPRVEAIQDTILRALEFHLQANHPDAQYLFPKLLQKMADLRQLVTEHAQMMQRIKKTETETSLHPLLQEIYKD

[2] = target: T2, purified full-length PPARδ, Cy5-labelled (human, UniProt Q03181 1-441, Cy5 fluorophore (NHS) on lysine amines); assay: temperature related intensity change (TRIC); 50 nM Cy5-labelled FL-PPARδ or PPARδ LBD with LTPs (10 µM-610 pM), overnight at 4 °C; 20 mM Hepes pH 8.3, 200 mM NaCl, 5% glycerol, 0.05% tween-20, 0.5 mM TCEP; Dianthus NT.23 Pico; settings: both partners purified
T2 construct: Full-length PPARδ in PSMT3 vector; also called FL-PPARδ; full-length (FL) PPARδ; source: E. coli BL21 DE3, purified (IMAC, Capto S and Capto Q, Superdex 75 SEC)
T2 sequence (looked up): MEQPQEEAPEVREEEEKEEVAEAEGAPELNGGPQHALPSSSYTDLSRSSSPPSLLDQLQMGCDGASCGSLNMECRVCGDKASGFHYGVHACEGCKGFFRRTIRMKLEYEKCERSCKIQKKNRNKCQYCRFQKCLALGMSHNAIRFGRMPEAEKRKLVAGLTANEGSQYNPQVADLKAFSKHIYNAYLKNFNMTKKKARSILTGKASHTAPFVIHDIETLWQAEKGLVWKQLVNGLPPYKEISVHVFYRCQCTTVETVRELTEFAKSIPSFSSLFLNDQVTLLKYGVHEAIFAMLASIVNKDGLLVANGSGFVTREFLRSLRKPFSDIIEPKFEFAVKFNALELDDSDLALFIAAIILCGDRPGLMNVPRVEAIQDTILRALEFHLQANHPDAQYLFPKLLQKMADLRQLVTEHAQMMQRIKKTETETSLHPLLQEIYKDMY

[3] = target: T3, full-length PPARδ, split nano-luciferase (nano-PCA) fusion (human, UniProt Q03181 1-441); assay: split reporter (BiFC, NanoBiT); nano-PCA in transfected Huh7 cells (100 ng/well of each fusion); fresh culture media or DMEM F-12 with 0.5% serum (mutant panel in 0.5% serum); signal normalized to the highest negative control; settings: partners not purified
T3 construct: wild-type human PPARδ, printed as residues 1-470; The clones of the HEK293T screen are not described; also called FL-PPARδ; intact PPARδ; source: HEK293T (screen) and Huh7, transfected, in cells
T3 sequence (looked up): T2 sequence (looked up)

- Kd [1]: 4.23 µM
- Kd [2]: ~2.4 µM
B1: purified PC-TP (natural protein, human)
chain: MELAAGSFSEEQFWEACAELQQPALAGADWQLLVETSGISIYRLLDKKTGLYEYKVFGVLEDCSPTLLADIYMDSDYRKQWDQYVKELYEQECNGETVVYWEVKYPFPMSNRDYVYLRQRRDLDMEGRKIHVILARSTSMPQLGERSGVIRVKQYKQSLAIESDGKKGSKVFMYYFDNPGGQIPSWLINWAAKNGVPNFLKDMARACQNYLKKT
notes: PC-TP coding region in pMCSG7; the structure of PC-TP solved here is PDB 7U9D; 0.01% soy lecithin was added to the cultures at induction; also called LTP; source: E. coli BL21 DE3, purified (IMAC, Superdex 75 SEC)

- percent decrease of the interaction relative to wild-type PC-TP [3]: ~45%
B2: PC-TP R78E, split nano-luciferase (nano-PCA) fusion (natural protein, human, UniProt Q9UKL6 1-214, looked up)
chain: B1 chain with R78E
notes: source: Huh7, transfected, in cells

- percent decrease of the interaction relative to wild-type PC-TP [3]: ~45%
B3: PC-TP R120H, split nano-luciferase (nano-PCA) fusion (natural protein, human, UniProt Q9UKL6 1-214, looked up)
chain: B1 chain with R120H
notes: as for B2

- percent decrease of the interaction relative to wild-type PC-TP [3]: ~45%
B4: PC-TP Y114R, split nano-luciferase (nano-PCA) fusion (natural protein, human, UniProt Q9UKL6 1-214, looked up)
chain: B1 chain with Y114R
notes: as for B2
